Reference: patent publication US20140087995A1 (published 2014)
Numbered stars: 1 amine (or outer) side, 2 acyl side, 3 side chain; on linkers, the order of the positions; unused ones are H or OH. Bridge positions count the residues as written; N and C are the ends. Side chains are listed from the residue outwards. Ends that are not written are not given here. * marks the point of attachment. C20 diacid = O=C(O)CCCCCCCCCCCCCCCCCCC(=O)*; γGlu = O=C(O)[C@H](CCC(=O)[*:2])N[*:1]; AEEA = NCCOCCOCC(=O)O

Legend:
[1] = target: T1, human calcitonin receptor (human, UniProt P30988 25-474); test: cell-based or functional assay
T1 sequence (looked up): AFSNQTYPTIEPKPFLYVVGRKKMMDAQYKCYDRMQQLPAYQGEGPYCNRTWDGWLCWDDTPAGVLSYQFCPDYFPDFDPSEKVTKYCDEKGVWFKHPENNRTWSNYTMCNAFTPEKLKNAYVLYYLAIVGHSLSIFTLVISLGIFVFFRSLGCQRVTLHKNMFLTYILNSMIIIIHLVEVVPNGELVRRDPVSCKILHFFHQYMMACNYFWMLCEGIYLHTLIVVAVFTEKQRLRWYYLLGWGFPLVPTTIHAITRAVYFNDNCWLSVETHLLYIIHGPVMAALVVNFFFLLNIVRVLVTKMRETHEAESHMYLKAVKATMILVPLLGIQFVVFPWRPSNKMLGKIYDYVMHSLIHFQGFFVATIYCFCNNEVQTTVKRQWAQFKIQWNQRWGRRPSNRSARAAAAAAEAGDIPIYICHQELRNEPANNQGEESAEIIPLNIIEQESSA

[2] = target: T2, human amylin receptor (amylin 3(a) receptor: human calcitonin receptor plus RAMP-3) (human, UniProt P30988 25-474; O60896 24-148, limits assumed); test: cell-based or functional assay
T2 sequence (looked up) 1: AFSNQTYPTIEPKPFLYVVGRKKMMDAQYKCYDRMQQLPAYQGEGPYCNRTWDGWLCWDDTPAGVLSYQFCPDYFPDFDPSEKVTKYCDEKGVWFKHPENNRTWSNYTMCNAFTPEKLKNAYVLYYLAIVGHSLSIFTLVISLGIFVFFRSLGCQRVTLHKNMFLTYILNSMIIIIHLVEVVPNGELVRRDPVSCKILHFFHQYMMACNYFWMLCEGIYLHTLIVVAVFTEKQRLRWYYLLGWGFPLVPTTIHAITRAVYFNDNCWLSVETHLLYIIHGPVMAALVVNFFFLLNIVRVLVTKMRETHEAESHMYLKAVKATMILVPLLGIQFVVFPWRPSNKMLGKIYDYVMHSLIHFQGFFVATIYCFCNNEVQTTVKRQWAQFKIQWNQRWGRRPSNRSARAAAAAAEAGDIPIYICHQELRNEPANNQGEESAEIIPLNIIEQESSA
T2 sequence (looked up) 2: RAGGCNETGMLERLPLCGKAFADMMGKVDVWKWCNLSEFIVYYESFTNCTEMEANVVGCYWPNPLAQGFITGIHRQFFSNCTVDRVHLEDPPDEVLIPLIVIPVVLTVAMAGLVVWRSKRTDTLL

B1: N^α1-[(4S)-4-carboxy-4-(19-carboxynonadecanoylamino)butanoyl]-[Glu14,Arg17,Pro21,Pro25,Pro28,Pro29]-h-amylin (peptide)
peptide: {C20 diacid-γGlu}-KCNTATCATQRLAEFLRHSSPNFGPILPPTNVGSNTY-NH2
modifications: disulfide 2-7
SMILES: CC[C@H](C)[C@H](NC(=O)[C@@H]1CCCN1C(=O)CNC(=O)[C@H](Cc1ccccc1)NC(=O)[C@H](CC(N)=O)NC(=O)[C@@H]1CCCN1C(=O)[C@H](CO)NC(=O)[C@H](CO)NC(=O)[C@H](Cc1c[nH]cn1)NC(=O)[C@H](CCCNC(=N)N)NC(=O)[C@H](CC(C)C)NC(=O)[C@H](Cc1ccccc1)NC(=O)[C@H](CCC(=O)O)NC(=O)[C@H](C)NC(=O)[C@H](CC(C)C)NC(=O)[C@H](CCCNC(=N)N)NC(=O)[C@H](CCC(N)=O)NC(=O)[C@@H](NC(=O)[C@H](C)NC(=O)[C@@H]1CSSC[C@H](NC(=O)[C@H](CCCCN)NC(=O)CC[C@H](NC(=O)CCCCCCCCCCCCCCCCCCC(=O)O)C(=O)O)C(=O)N[C@@H](CC(N)=O)C(=O)N[C@@H]([C@@H](C)O)C(=O)N[C@@H](C)C(=O)N[C@@H]([C@@H](C)O)C(=O)N1)[C@@H](C)O)C(=O)N[C@@H](CC(C)C)C(=O)N1CCC[C@H]1C(=O)N1CCC[C@H]1C(=O)N[C@H](C(=O)N[C@@H](CC(N)=O)C(=O)N[C@H](C(=O)NCC(=O)N[C@@H](CO)C(=O)N[C@@H](CC(N)=O)C(=O)N[C@H](C(=O)N[C@@H](Cc1ccc(O)cc1)C(N)=O)[C@@H](C)O)C(C)C)[C@@H](C)O
notes: Synthetic acylated analogue of human amylin; also called compound 6
[1]
  hCTR funct. EC50: 729 pM
[2]
  Ratio hCT/hAmylin funct.: 5.7 ratio
  hAmylin-R funct. EC50: 128 pM

B2: N^ε1-[2-[2-[2-[[(4S)-4-carboxy-4-(19-carboxynonadecanoylamino)butanoyl]amino]ethoxy]ethoxy]acetyl]-[Arg17,Pro21,Pro27]-h-amylin (peptide)
peptide: K([AEEA-γGlu-C20 diacid])CNTATCATQRLANFLRHSSPNFGAIPSSTNVGSNTY-NH2
modifications: disulfide 2-7; N-terminus assumed
SMILES: CC[C@H](C)[C@H](NC(=O)[C@H](C)NC(=O)CNC(=O)[C@H](Cc1ccccc1)NC(=O)[C@H](CC(N)=O)NC(=O)[C@@H]1CCCN1C(=O)[C@H](CO)NC(=O)[C@H](CO)NC(=O)[C@H](Cc1c[nH]cn1)NC(=O)[C@H](CCCNC(=N)N)NC(=O)[C@H](CC(C)C)NC(=O)[C@H](Cc1ccccc1)NC(=O)[C@H](CC(N)=O)NC(=O)[C@H](C)NC(=O)[C@H](CC(C)C)NC(=O)[C@H](CCCNC(=N)N)NC(=O)[C@H](CCC(N)=O)NC(=O)[C@@H](NC(=O)[C@H](C)NC(=O)[C@@H]1CSSC[C@H](NC(=O)[C@@H](N)CCCCNC(=O)COCCOCCNC(=O)CC[C@H](NC(=O)CCCCCCCCCCCCCCCCCCC(=O)O)C(=O)O)C(=O)N[C@@H](CC(N)=O)C(=O)N[C@@H]([C@@H](C)O)C(=O)N[C@@H](C)C(=O)N[C@@H]([C@@H](C)O)C(=O)N1)[C@@H](C)O)C(=O)N1CCC[C@H]1C(=O)N[C@@H](CO)C(=O)N[C@@H](CO)C(=O)N[C@H](C(=O)N[C@@H](CC(N)=O)C(=O)N[C@H](C(=O)NCC(=O)N[C@@H](CO)C(=O)N[C@@H](CC(N)=O)C(=O)N[C@H](C(=O)N[C@@H](Cc1ccc(O)cc1)C(N)=O)[C@@H](C)O)C(C)C)[C@@H](C)O
notes: Synthetic acylated analogue of human amylin; also called compound 41
[1]
  hCTR funct. EC50: 4350 pM
[2]
  Ratio hCT/hAmylin funct.: 16.7 ratio
  hAmylin-R funct. EC50: 260 pM

B3: N^ε1-[2-[2-[2-(19-carboxynonadecanoylamino)ethoxy]ethoxy]acetyl]-[Arg17,Pro21,Pro27]-h-amylin (peptide)
peptide: K([AEEA-C20 diacid])CNTATCATQRLANFLRHSSPNFGAIPSSTNVGSNTY-NH2
modifications: disulfide 2-7; N-terminus assumed
SMILES: CC[C@H](C)[C@H](NC(=O)[C@H](C)NC(=O)CNC(=O)[C@H](Cc1ccccc1)NC(=O)[C@H](CC(N)=O)NC(=O)[C@@H]1CCCN1C(=O)[C@H](CO)NC(=O)[C@H](CO)NC(=O)[C@H](Cc1c[nH]cn1)NC(=O)[C@H](CCCNC(=N)N)NC(=O)[C@H](CC(C)C)NC(=O)[C@H](Cc1ccccc1)NC(=O)[C@H](CC(N)=O)NC(=O)[C@H](C)NC(=O)[C@H](CC(C)C)NC(=O)[C@H](CCCNC(=N)N)NC(=O)[C@H](CCC(N)=O)NC(=O)[C@@H](NC(=O)[C@H](C)NC(=O)[C@@H]1CSSC[C@H](NC(=O)[C@@H](N)CCCCNC(=O)COCCOCCNC(=O)CCCCCCCCCCCCCCCCCCC(=O)O)C(=O)N[C@@H](CC(N)=O)C(=O)N[C@@H]([C@@H](C)O)C(=O)N[C@@H](C)C(=O)N[C@@H]([C@@H](C)O)C(=O)N1)[C@@H](C)O)C(=O)N1CCC[C@H]1C(=O)N[C@@H](CO)C(=O)N[C@@H](CO)C(=O)N[C@H](C(=O)N[C@@H](CC(N)=O)C(=O)N[C@H](C(=O)NCC(=O)N[C@@H](CO)C(=O)N[C@@H](CC(N)=O)C(=O)N[C@H](C(=O)N[C@@H](Cc1ccc(O)cc1)C(N)=O)[C@@H](C)O)C(C)C)[C@@H](C)O
notes: Synthetic acylated analogue of human amylin; also called compound 43
[1]
  hCTR funct. EC50: 920 pM
[2]
  Ratio hCT/hAmylin funct.: 6.5 ratio
  hAmylin-R funct. EC50: 141 pM

B4: N^ε-[(4S)-4-carboxy-4-(19-carboxynonadecanoylamino)butanoyl]Lys[Arg1,Arg17,Pro21,Pro27,His35]-h-amylin (peptide)
peptide: K([γGlu-C20 diacid])RCNTATCATQRLANFLRHSSPNFGAIPSSTNVGSHTY-NH2
modifications: disulfide 3-8; N-terminus assumed
SMILES: CC[C@H](C)[C@H](NC(=O)[C@H](C)NC(=O)CNC(=O)[C@H](Cc1ccccc1)NC(=O)[C@H](CC(N)=O)NC(=O)[C@@H]1CCCN1C(=O)[C@H](CO)NC(=O)[C@H](CO)NC(=O)[C@H](Cc1c[nH]cn1)NC(=O)[C@H](CCCNC(=N)N)NC(=O)[C@H](CC(C)C)NC(=O)[C@H](Cc1ccccc1)NC(=O)[C@H](CC(N)=O)NC(=O)[C@H](C)NC(=O)[C@H](CC(C)C)NC(=O)[C@H](CCCNC(=N)N)NC(=O)[C@H](CCC(N)=O)NC(=O)[C@@H](NC(=O)[C@H](C)NC(=O)[C@@H]1CSSC[C@H](NC(=O)[C@H](CCCNC(=N)N)NC(=O)[C@@H](N)CCCCNC(=O)CC[C@H](NC(=O)CCCCCCCCCCCCCCCCCCC(=O)O)C(=O)O)C(=O)N[C@@H](CC(N)=O)C(=O)N[C@@H]([C@@H](C)O)C(=O)N[C@@H](C)C(=O)N[C@@H]([C@@H](C)O)C(=O)N1)[C@@H](C)O)C(=O)N1CCC[C@H]1C(=O)N[C@@H](CO)C(=O)N[C@@H](CO)C(=O)N[C@H](C(=O)N[C@@H](CC(N)=O)C(=O)N[C@H](C(=O)NCC(=O)N[C@@H](CO)C(=O)N[C@@H](Cc1c[nH]cn1)C(=O)N[C@H](C(=O)N[C@@H](Cc1ccc(O)cc1)C(N)=O)[C@@H](C)O)C(C)C)[C@@H](C)O
notes: Synthetic acylated analogue of human amylin, extended by Lys at the N-terminus; also called compound 44
[1]
  hCTR funct. EC50: 4750 pM
[2]
  Ratio hCT/hAmylin funct.: 24 ratio
  hAmylin-R funct. EC50: 198 pM

B5: N^-1-[(4S)-4-carboxy-4-(19-carboxynonadecanoylamino)butanoyl]-Gly[Arg1,Arg17,Pro21,Pro27,His35]-h-amylin (peptide)
peptide: {C20 diacid-γGlu}-GRCNTATCATQRLANFLRHSSPNFGAIPSSTNVGSHTY-NH2
modifications: disulfide 3-8
SMILES: CC[C@H](C)[C@H](NC(=O)[C@H](C)NC(=O)CNC(=O)[C@H](Cc1ccccc1)NC(=O)[C@H](CC(N)=O)NC(=O)[C@@H]1CCCN1C(=O)[C@H](CO)NC(=O)[C@H](CO)NC(=O)[C@H](Cc1c[nH]cn1)NC(=O)[C@H](CCCNC(=N)N)NC(=O)[C@H](CC(C)C)NC(=O)[C@H](Cc1ccccc1)NC(=O)[C@H](CC(N)=O)NC(=O)[C@H](C)NC(=O)[C@H](CC(C)C)NC(=O)[C@H](CCCNC(=N)N)NC(=O)[C@H](CCC(N)=O)NC(=O)[C@@H](NC(=O)[C@H](C)NC(=O)[C@@H]1CSSC[C@H](NC(=O)[C@H](CCCNC(=N)N)NC(=O)CNC(=O)CC[C@H](NC(=O)CCCCCCCCCCCCCCCCCCC(=O)O)C(=O)O)C(=O)N[C@@H](CC(N)=O)C(=O)N[C@@H]([C@@H](C)O)C(=O)N[C@@H](C)C(=O)N[C@@H]([C@@H](C)O)C(=O)N1)[C@@H](C)O)C(=O)N1CCC[C@H]1C(=O)N[C@@H](CO)C(=O)N[C@@H](CO)C(=O)N[C@H](C(=O)N[C@@H](CC(N)=O)C(=O)N[C@H](C(=O)NCC(=O)N[C@@H](CO)C(=O)N[C@@H](Cc1c[nH]cn1)C(=O)N[C@H](C(=O)N[C@@H](Cc1ccc(O)cc1)C(N)=O)[C@@H](C)O)C(C)C)[C@@H](C)O
notes: Synthetic acylated analogue of human amylin, extended by Gly at the N-terminus; also called compound 47
[1]
  hCTR funct. EC50: 1320 pM
[2]
  Ratio hCT/hAmylin funct.: 6 ratio
  hAmylin-R funct. EC50: 222 pM

B6: N^-1-[(4S)-4-carboxy-4-(19-carboxynonadecanoylamino)butanoyl]-Gly[Arg1,Arg17,Pro21,Pro27]-h-amylin (peptide)
peptide: {C20 diacid-γGlu}-GRCNTATCATQRLANFLRHSSPNFGAIPSSTNVGSNTY-NH2
modifications: disulfide 3-8
SMILES: CC[C@H](C)[C@H](NC(=O)[C@H](C)NC(=O)CNC(=O)[C@H](Cc1ccccc1)NC(=O)[C@H](CC(N)=O)NC(=O)[C@@H]1CCCN1C(=O)[C@H](CO)NC(=O)[C@H](CO)NC(=O)[C@H](Cc1c[nH]cn1)NC(=O)[C@H](CCCNC(=N)N)NC(=O)[C@H](CC(C)C)NC(=O)[C@H](Cc1ccccc1)NC(=O)[C@H](CC(N)=O)NC(=O)[C@H](C)NC(=O)[C@H](CC(C)C)NC(=O)[C@H](CCCNC(=N)N)NC(=O)[C@H](CCC(N)=O)NC(=O)[C@@H](NC(=O)[C@H](C)NC(=O)[C@@H]1CSSC[C@H](NC(=O)[C@H](CCCNC(=N)N)NC(=O)CNC(=O)CC[C@H](NC(=O)CCCCCCCCCCCCCCCCCCC(=O)O)C(=O)O)C(=O)N[C@@H](CC(N)=O)C(=O)N[C@@H]([C@@H](C)O)C(=O)N[C@@H](C)C(=O)N[C@@H]([C@@H](C)O)C(=O)N1)[C@@H](C)O)C(=O)N1CCC[C@H]1C(=O)N[C@@H](CO)C(=O)N[C@@H](CO)C(=O)N[C@H](C(=O)N[C@@H](CC(N)=O)C(=O)N[C@H](C(=O)NCC(=O)N[C@@H](CO)C(=O)N[C@@H](CC(N)=O)C(=O)N[C@H](C(=O)N[C@@H](Cc1ccc(O)cc1)C(N)=O)[C@@H](C)O)C(C)C)[C@@H](C)O
notes: Synthetic acylated analogue of human amylin, extended by Gly at the N-terminus; also called compound 46
[1]
  hCTR funct. EC50: 899 pM
[2]
  Ratio hCT/hAmylin funct.: 10.2 ratio
  hAmylin-R funct. EC50: 88 pM
